According to article PMC8727134:

Biological target: RUNX1 Runt domain (His6-RUNX1);CBFbeta (His6-CBFβ) (mouse;mouse, UniProt Q03347;Q08024 24-189;1-187, |)
Assay: EMSA

Chain of RUNX1 Runt domain (His6-RUNX1);CBFbeta (His6-CBFβ) (Q03347 24-189, chain 1 of 2): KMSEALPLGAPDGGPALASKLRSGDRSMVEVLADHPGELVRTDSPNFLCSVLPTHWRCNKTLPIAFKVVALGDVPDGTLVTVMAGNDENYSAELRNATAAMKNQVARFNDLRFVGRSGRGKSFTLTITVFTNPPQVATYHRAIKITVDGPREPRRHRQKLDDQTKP
Chain of RUNX1 Runt domain (His6-RUNX1);CBFbeta (His6-CBFβ) (Q08024 whole entry, chain 2 of 2, the tested form may be a part): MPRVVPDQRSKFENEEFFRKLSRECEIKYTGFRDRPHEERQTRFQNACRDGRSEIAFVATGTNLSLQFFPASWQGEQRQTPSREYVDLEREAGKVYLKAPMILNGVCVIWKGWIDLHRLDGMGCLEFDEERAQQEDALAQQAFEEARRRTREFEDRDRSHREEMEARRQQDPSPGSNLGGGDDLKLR

| Binder | binding result |
| --- | --- |
| MT2 (dsDNA) DNA 1: AGCTCCGTTATAGAAT DNA 2: ATTCTATAACGGAGCT | no binding |
| WT2 (dsDNA) DNA 1: AGCTCTGTGGTAGAAT DNA 2: ATTCTACCACAGAGCT | no binding |
| MT1 (dsDNA) DNA 1: GAAAAATAACGTATGG DNA 2: CCATACGTTATTTTTC | no binding |
